Patent US20240117057A1 (CELLDEX THERAPEUTICS, published 2024)
Where two headings read alike, the source gives them in different places. Each block holds one binder with its values, some of them ahead of it.

How the values were obtained:
[1] = target: human KIT (human, UniProt P10721 26-976); assay: cell-based or functional assay
[2] = target: T1, recombinant human FcγRI (human, UniProt P12314 16-288); assay: BLI (Octet QKe), His-tagged receptor on anti-Penta-His biosensors, antibody in solution
T1 construct: Histidine-tagged recombinant receptor captured on anti-Penta-His biosensors; also called FcgRI; not shown: histidine tag

[3] = target: T2, recombinant human FcγRIIa (human, UniProt P12318 36-218, limits assumed); assay: as above
T2 construct: Histidine-tagged recombinant receptor captured on anti-Penta-His biosensors; not shown: histidine tag
T2 sequence (looked up): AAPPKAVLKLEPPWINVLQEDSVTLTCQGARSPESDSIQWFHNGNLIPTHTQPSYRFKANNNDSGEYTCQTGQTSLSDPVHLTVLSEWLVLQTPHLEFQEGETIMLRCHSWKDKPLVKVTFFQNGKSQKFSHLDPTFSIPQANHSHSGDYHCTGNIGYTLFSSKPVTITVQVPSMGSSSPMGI

[4] = target: T3, recombinant human FcγRIIIa (human, UniProt P08637 17-208); assay: as above
T3 construct: Histidine-tagged recombinant receptor captured on anti-Penta-His biosensors; not shown: histidine tag

[5] = target: T4, recombinant human FcγRIIIb (human, UniProt O75015 17-200); assay: as above
T4 construct: Histidine-tagged recombinant receptor captured on anti-Penta-His biosensors; not shown: histidine tag

[6] = target: T5, recombinant human FcγRIIb (human, UniProt P31994 43-217, limits assumed); assay: Bio-layer interferometry sensorgrams, FcγRIIb on the sensor, serial dilutions of antibody
T5 construct: Histidine-tagged recombinant receptor captured on anti-Penta-His biosensors; not shown: histidine tag
T5 sequence (looked up): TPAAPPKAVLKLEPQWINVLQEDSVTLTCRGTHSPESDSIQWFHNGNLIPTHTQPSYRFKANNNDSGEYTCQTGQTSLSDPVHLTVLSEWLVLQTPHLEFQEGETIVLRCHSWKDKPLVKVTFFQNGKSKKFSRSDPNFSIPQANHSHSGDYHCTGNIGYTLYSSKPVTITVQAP

[7] = target: T6, human neonatal Fc Receptor (FcRn) (human, UniProt P55899 24-297; P61769 21-119); assay: BLI (Octet QKe) at pH 6.0, His-tagged receptor on anti-Penta-His biosensors; pH 6.0 (to simulate endocytic conditions)
T6 construct: Histidine-tagged recombinant receptor captured on anti-Penta-His biosensors; not shown: histidine tag

[8] = target: T1, recombinant human FcγRI; assay: Bio-layer interferometry (Octet QKe), His-tagged FcγRI captured on anti-Penta-His biosensors; range 62.5-7.8 nM; fit R2 0.9955
Procedure: (§1) Binding to recombinant human Fc receptors was measured by bio-layer interferometry using an Octet® QKe instrument. […] Curve fitting was performed using the instrument's analysis software.

[9] = target: T2, recombinant human FcγRIIa; assay: Bio-layer interferometry (Octet QKe), His-tagged FcγRIIa captured on anti-Penta-His biosensors; range 500-62.5 nM; fit R2 0.9791
Procedure: (§2) Binding to recombinant human Fc receptors was measured by bio-layer interferometry using an Octet® QKe instrument. […] Curve fitting was performed using the instrument's analysis software. Binding to FcRn was performed with association and dissociation steps at pH 6.0 as well as pH 7.2.

[10] = target: T3, recombinant human FcγRIIIa; assay: Bio-layer interferometry (Octet QKe), His-tagged FcγRIIIa captured on anti-Penta-His biosensors; range 125-15.6 nM; fit R2 0.9895
Procedure: as §2

[11] = target: T4, recombinant human FcγRIIIb; assay: Bio-layer interferometry (Octet QKe), His-tagged FcγRIIIb captured on anti-Penta-His biosensors; range 500-62.5 nM; fit R2 0.9723
Procedure: as §2

[12] = target: T1, recombinant human FcγRI; assay: Bio-layer interferometry (Octet QKe), His-tagged FcγRI captured on anti-Penta-His biosensors; printed as Kdis; range 62.5-7.8 nM; fit R2 0.9955
Procedure: as §2

[13] = target: T2, recombinant human FcγRIIa; assay: Bio-layer interferometry (Octet QKe), His-tagged FcγRIIa captured on anti-Penta-His biosensors; printed as Kdis; range 500-62.5 nM; fit R2 0.9791
Procedure: as §2

[14] = target: T3, recombinant human FcγRIIIa; assay: Bio-layer interferometry (Octet QKe), His-tagged FcγRIIIa captured on anti-Penta-His biosensors; printed as Kdis; range 125-15.6 nM; fit R2 0.9895
Procedure: as §2

[15] = target: T4, recombinant human FcγRIIIb; assay: Bio-layer interferometry (Octet QKe), His-tagged FcγRIIIb captured on anti-Penta-His biosensors; printed as Kdis; range 500-62.5 nM; fit R2 0.9723
Procedure: as §2

[16] = target: T6, human neonatal Fc Receptor (FcRn); assay: Bio-layer interferometry (Octet QKe), His-tagged FcRn captured on anti-Penta-His biosensors, association and dissociation at pH 6.0; range 500-62.5 nM; fit R2 0.9757
Procedure: as §2

[17] = target: T6, human neonatal Fc Receptor (FcRn); assay: Bio-layer interferometry (Octet QKe), His-tagged FcRn captured on anti-Penta-His biosensors, association and dissociation at pH 6.0; printed as Kdis; range 500-62.5 nM; fit R2 0.9757
Procedure: as §2
(§3) Binding to the human neonatal Fc Receptor (FcRn) was tested at physiological pH 7.2 as well as at pH 6.0 to simulate endocytic conditions.

[18] = target: T6, human neonatal Fc Receptor (FcRn); assay: BLI (Octet QKe) at pH 6.0, His-tagged receptor on anti-Penta-His biosensors
Procedure: as §2, §3

[19] = target: T6, human neonatal Fc Receptor (FcRn); assay: BLI (Octet QKe) at pH 7.2, His-tagged receptor on anti-Penta-His biosensors
Procedure: as §2, §3

[20] = target: T5, recombinant human FcγRIIb; assay: Bio-layer interferometry sensorgrams, FcγRIIb on the sensor, serial dilutions of antibody; remark: listed apart in the source
Procedure: as §1

[21] = target: T3, recombinant human FcγRIIIa; assay: Bio-layer interferometry sensorgrams, FcγRIIIa on the sensor, serial dilutions of antibody
Procedure: as §1

[22] = target: T4, recombinant human FcγRIIIb; assay: Bio-layer interferometry sensorgrams, FcγRIIIb on the sensor, serial dilutions of antibody
Procedure: as §2

[23] = target: T1, recombinant human FcγRI; assay: Bio-layer interferometry (Octet QKe), His-tagged FcγRI captured on anti-Penta-His biosensors
Procedure: as §2

[24] = target: T2, recombinant human FcγRIIa; assay: Bio-layer interferometry (Octet QKe), His-tagged FcγRIIa captured on anti-Penta-His biosensors
Procedure: as §1

[25] = target: T6, human neonatal Fc Receptor (FcRn); assay: Bio-layer interferometry (Octet QKe), His-tagged FcRn captured on anti-Penta-His biosensors, association and dissociation at pH 7.2; range 500-15.6 nM; fit R2 0.9876
Procedure: as §2

[26] = target: T6, human neonatal Fc Receptor (FcRn); assay: Bio-layer interferometry (Octet QKe), His-tagged FcRn captured on anti-Penta-His biosensors, association and dissociation at pH 6.0; range 31.25-1.9 nM; fit R2 0.9869
Procedure: as §2, §3

[27] = target: T6, human neonatal Fc Receptor (FcRn); assay: Bio-layer interferometry (Octet QKe), His-tagged FcRn captured on anti-Penta-His biosensors, association and dissociation at pH 7.2; printed as Kdis; range 500-15.6 nM; fit R2 0.9876
Procedure: as §2, §3

[28] = target: T6, human neonatal Fc Receptor (FcRn); assay: Bio-layer interferometry (Octet QKe), His-tagged FcRn captured on anti-Penta-His biosensors, association and dissociation at pH 6.0; printed as Kdis; range 31.25-1.9 nM; fit R2 0.9869
Procedure: as §2

T1 sequence (P12314 16-288 limits assumed): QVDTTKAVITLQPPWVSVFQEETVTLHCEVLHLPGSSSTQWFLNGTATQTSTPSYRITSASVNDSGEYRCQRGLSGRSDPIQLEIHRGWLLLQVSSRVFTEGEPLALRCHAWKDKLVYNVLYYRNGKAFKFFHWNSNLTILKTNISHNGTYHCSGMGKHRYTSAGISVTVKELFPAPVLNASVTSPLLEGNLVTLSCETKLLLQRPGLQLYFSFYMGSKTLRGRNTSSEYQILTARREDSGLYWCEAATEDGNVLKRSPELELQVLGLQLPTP
T4 sequence (O75015 17-200 limits assumed): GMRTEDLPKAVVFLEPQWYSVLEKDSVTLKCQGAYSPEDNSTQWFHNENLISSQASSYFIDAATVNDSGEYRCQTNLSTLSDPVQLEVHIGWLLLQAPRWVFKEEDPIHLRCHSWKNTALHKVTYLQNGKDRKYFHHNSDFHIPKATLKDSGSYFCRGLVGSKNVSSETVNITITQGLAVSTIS
T3 sequence (P08637 17-208 limits assumed): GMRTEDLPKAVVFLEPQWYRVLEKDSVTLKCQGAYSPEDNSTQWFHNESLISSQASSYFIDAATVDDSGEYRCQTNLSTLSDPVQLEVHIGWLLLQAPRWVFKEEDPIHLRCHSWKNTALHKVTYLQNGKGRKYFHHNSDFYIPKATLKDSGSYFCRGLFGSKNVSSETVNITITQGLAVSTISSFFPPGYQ
human KIT, sequence (P10721 other isoform, or with tags, fused parts or gaps limits assumed): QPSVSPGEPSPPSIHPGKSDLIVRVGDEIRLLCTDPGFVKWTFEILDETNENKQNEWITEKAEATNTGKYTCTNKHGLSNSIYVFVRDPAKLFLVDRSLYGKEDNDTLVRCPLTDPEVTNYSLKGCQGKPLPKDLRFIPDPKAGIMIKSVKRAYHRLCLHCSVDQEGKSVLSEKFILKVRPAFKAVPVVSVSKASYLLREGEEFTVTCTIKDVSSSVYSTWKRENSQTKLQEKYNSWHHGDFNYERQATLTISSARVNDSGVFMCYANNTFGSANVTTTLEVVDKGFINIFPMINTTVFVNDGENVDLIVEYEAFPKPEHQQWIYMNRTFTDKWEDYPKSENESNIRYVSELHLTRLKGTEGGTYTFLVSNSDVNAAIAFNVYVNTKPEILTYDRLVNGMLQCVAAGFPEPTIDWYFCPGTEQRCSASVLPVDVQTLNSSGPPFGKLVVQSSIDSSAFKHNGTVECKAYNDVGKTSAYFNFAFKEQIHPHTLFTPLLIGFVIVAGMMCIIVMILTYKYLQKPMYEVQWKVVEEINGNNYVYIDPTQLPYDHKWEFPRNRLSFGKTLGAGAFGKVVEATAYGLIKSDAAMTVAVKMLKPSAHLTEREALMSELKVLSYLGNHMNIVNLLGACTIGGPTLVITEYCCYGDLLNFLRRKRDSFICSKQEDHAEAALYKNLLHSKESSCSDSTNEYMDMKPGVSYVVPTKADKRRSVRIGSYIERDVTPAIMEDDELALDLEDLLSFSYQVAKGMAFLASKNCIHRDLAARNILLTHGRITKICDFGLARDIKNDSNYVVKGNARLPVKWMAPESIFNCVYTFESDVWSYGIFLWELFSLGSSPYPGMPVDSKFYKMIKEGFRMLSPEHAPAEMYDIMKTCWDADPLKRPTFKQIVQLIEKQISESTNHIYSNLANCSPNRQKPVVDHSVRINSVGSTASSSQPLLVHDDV

IC50, inhibition of SCF-dependent M-07e cell proliferation [1]: 1.12 nM
Kd [2]: 3.39 nM
Kd [3]: 391 nM
Kd [4]: 127 nM
Kd [5]: 816 nM
Kd [7]: 211 nM
kon [8]: 522000 M⁻¹ s⁻¹
kon [9]: 358000 M⁻¹ s⁻¹
kon [10]: 128000 M⁻¹ s⁻¹
kon [11]: 152000 M⁻¹ s⁻¹
koff [12]: 0.00177 s⁻¹
koff [13]: 0.14 s⁻¹
koff [14]: 0.0162 s⁻¹
koff [15]: 0.124 s⁻¹
kon [16]: 141000 M⁻¹ s⁻¹
koff [17]: 0.0296 s⁻¹
B1: mAbc (antibody, human IgG1, kappa)
heavy: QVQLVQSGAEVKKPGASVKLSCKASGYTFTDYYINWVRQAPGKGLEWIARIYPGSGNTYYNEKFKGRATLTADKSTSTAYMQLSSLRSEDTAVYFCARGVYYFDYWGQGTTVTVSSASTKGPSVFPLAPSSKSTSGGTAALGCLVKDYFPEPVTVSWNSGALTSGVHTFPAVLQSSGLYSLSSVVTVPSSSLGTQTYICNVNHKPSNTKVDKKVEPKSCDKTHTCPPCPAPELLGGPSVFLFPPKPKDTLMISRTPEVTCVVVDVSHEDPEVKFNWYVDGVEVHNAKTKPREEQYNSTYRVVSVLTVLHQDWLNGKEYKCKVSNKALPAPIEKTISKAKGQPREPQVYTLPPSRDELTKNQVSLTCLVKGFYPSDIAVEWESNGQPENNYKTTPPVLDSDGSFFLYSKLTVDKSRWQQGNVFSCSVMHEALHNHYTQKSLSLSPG
light: DIVMTQSPSSLSASVGDRVTITCKASQNVRTNVAWYQQKPGKAPKALIYSASYRYSGVPDRFTGSGSGTDFTLTISSLQPEDFADYFCQQYNSYPRTFGGGTKVEIKRTVAAPSVFIFPPSDEQLKSGTASVVCLLNNFYPREAKVQWKVDNALQSGNSQESVTEQDSKDSTYSLSSTLTLSKADYEKHKVYACEVTHQGLSSPVTKSFNRGEC
notes: Positions are EU numbers; also called corresponding antibody with a wild-type (unmutated) IgG1 Fc domain; copies: 2 + 2
binding result [6]: no binding (tested: 500 nM (range given in FIG. 7))

IC50, inhibition of SCF-dependent M-07e cell proliferation [1]: 1.11 nM
Kd [18]: 0.38 nM
Kd [19]: 77.1 nM
binding result [23]: no binding (tested: 500 nM)
binding result [24]: no binding (tested: 500 nM)
kon [25]: 1.05e+06 M⁻¹ s⁻¹
Kd [26]: 0.383 nM
kon [26]: 2e+06 M⁻¹ s⁻¹
koff [27]: 0.0807 s⁻¹
koff [28]: 0.000765 s⁻¹
B2: mAb1 (antibody, human IgG1, kappa)
heavy: QVQLVQSGAEVKKPGASVKLSCKASGYTFTDYYINWVRQAPGKGLEWIARIYPGSGNTYYNEKFKGRATLTADKSTSTAYMQLSSLRSEDTAVYFCARGVYYFDYWGQGTTVTVSSASTKGPSVFPLAPSSKSTSGGTAALGCLVKDYFPEPVTVSWNSGALTSGVHTFPAVLQSSGLYSLSSVVTVPSSSLGTQTYICNVNHKPSNTKVDKKVEPKSCDKTHTCPPCPAPEAQGGPSVFLFPPKPKDTLYITREPEVTCVVVDVSHEDPEVKFNWYVDGVEVHNAKTKPREEQYNSTYRVVSVLTVLHQDWLNGKEYKCQVSNKALPAPIEKTISKAKGQPREPQVYTLPPSRDELTKNQVSLTCLVKGFYPSDIAVEWESNGQPENNYKTTPPVLDSDGSFFLYSKLTVDKSRWQQGNVFSCSVMHEALHNHYTQKSLSLSPG
light: B1 light
notes: Humanized anti-human KIT IgG1 with mutated Fc, expressed in CHO cells; also called antibody mAb 1; anti-KIT antibody; copies: 2 + 2
binding result [20]: no binding (tested: 500 nM (range given in FIG. 7))
binding result [21]: no binding (tested: 500 nM (range given in FIG. 7))
binding result [22]: no binding (tested: 500 nM (range given in FIG. 7))
